Laboratory results: US20150087814A1

Legend:
FcγRIIIa-F158 = FcγRIIIa-F158 (UniProt P08637); assay: SPR (Biacore T100), antibody captured on protein A chip, receptor injected as analyte, 1:1 steady-state fit
FcγRIIb = FcγRIIb (UniProt P31994); assay: SPR (Biacore T100), antibody captured on protein A chip, receptor injected as analyte
Sequence of FcγRIIb (P31994 46-217 limits assumed): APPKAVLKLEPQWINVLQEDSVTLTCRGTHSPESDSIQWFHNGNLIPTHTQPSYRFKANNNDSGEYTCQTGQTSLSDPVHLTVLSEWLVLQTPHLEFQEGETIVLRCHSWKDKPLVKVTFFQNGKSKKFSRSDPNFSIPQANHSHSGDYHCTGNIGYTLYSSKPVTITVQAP

Sequence of FcγRIIIa-F158 (P08637 17-208 limits assumed): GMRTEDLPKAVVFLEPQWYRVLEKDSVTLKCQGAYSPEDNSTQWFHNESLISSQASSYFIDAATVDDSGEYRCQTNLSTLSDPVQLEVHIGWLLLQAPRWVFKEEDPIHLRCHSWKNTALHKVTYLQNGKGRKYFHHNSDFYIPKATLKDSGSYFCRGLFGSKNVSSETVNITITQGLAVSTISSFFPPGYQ

## nonfucosylated G2 glycoform of rituximab (10) (antibody)
FcγRIIIa-F158
  Kd: 123 nM
FcγRIIb
  Kd: 2300 nM
